In publication PMC2859121 (Cell host & microbe, 2010):
Numbering of substitutions follows the chain as printed. * marks the point of attachment. Cam = NC(=O)C*

B1: tetherin(47–159) (domain or fragment, human, UniProt Q10589 47-159, looked up)
chain: KANSEACRDGLRAVMECRNVTHLLQQELTEAQKGFQDVEAQAATCNHTVMALMASLDAEKAQGQKKVEELEGEITTLNHKLQDASAEVERLRRENQVLSVRIADKKYYPSSQD
B2: tetherin(47–159)_set2 (domain or fragment, human, UniProt Q10589 47-159, looked up)
chain: B1 chain with L81K, A84Y, V88E, L91E
B3: tetherin(47–159) set 3 mutant (domain or fragment, human, UniProt Q10589 47-159, looked up)
chain: B1 chain with K1A, N3G, E5A, R8S, D9A, R12S
B4: tetherin(47–159), reduced with DTT and cysteines blocked with iodoacetamide (domain or fragment, human, UniProt Q10589 47-159, looked up)
chain: B1 chain
modifications: cysteines blocked with iodoacetamide after reduction with DTT
B5: tetherin(80–147), reduced with DTT and cysteines blocked with iodoacetamide (domain or fragment, human, UniProt Q10589 80-147, looked up)
chain: GFQDVEAQAATC(Cam)NHTVMALMASLDAEKAQGQKKVEELEGEITTLNHKLQDASAEVERLRRENQVLSVR
B6: tetherin(80–147) (domain or fragment, human, UniProt Q10589 80-147, looked up)
chain: GFQDVEAQAATCNHTVMALMASLDAEKAQGQKKVEELEGEITTLNHKLQDASAEVERLRRENQVLSVR

Columns and labels:
[1] = molecular target: the molecule itself; assay: SDS-PAGE under reducing and non-reducing conditions
cross-linking = molecular target: the molecule itself; assay: cross-linking

Row | Protein | stoichiometry N [1] | stoichiometry N (cross-linking) | other results
1 | B1 | 2 | – | –
2 | B2 | – | – | binding result [1]: binds
3 | B3 | 2 | – | –
4 | B4 | – | 2 | –
5 | B5 | – | 2 | –
6 | B6 | 2 | – | –
